Results taken from patent US11472855, “RNA-binding protein” (Panitch Schwarze Belisario & Nadel LLP).

Tests used:
Settings in all cases: label: Alexa680 at 5' and 3'
[1] = biological target: T1, hPUF_MT(R1_S12N, R3→R5, R4→R6) (R1 repeat S12N); test: EMSA; U>C>>G=A
T1 chain: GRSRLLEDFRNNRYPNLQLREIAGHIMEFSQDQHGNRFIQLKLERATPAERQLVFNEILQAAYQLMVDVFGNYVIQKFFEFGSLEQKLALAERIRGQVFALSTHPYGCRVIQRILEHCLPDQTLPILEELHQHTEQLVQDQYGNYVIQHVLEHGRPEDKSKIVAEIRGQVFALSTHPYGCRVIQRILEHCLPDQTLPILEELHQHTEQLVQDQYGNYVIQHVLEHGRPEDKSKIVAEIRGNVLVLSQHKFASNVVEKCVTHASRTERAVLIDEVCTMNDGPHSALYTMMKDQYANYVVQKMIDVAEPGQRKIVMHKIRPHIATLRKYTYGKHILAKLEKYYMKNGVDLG

hPUF_MT(R3→R5, R4→R6) [2] = biological target: T2, hPUF_MT(R3→R5, R4→R6); test: EMSA; U=C>A>G at R1 position; backbone printed as R4→R5
T2 chain: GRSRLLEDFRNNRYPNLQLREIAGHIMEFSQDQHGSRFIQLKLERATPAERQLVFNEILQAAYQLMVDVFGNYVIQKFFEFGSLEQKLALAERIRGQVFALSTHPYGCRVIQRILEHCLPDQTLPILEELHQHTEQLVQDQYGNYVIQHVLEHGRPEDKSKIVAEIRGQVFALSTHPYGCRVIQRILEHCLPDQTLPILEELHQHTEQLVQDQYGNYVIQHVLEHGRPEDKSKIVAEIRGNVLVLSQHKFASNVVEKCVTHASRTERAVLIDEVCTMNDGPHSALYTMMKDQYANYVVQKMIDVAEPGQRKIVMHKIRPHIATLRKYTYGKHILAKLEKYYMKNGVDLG

[3] = biological target: T3, hPUF_MT(1-2-5-6-5-6-6-7-8); test: EMSA
T3 chain: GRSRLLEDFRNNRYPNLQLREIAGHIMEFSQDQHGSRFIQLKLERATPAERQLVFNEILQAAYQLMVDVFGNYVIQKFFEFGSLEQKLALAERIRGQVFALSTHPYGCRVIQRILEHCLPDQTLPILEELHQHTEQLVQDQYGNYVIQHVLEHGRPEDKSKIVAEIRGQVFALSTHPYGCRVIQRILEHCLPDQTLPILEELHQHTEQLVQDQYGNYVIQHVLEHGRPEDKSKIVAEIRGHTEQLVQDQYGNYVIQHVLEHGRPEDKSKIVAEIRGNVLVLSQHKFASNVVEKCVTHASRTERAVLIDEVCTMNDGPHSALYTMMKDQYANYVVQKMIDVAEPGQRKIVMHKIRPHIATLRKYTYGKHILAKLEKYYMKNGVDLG

[4] = biological target: T4, hPUF_MT(1-2-5-5-6-5-6-7-8); test: EMSA
T4 chain: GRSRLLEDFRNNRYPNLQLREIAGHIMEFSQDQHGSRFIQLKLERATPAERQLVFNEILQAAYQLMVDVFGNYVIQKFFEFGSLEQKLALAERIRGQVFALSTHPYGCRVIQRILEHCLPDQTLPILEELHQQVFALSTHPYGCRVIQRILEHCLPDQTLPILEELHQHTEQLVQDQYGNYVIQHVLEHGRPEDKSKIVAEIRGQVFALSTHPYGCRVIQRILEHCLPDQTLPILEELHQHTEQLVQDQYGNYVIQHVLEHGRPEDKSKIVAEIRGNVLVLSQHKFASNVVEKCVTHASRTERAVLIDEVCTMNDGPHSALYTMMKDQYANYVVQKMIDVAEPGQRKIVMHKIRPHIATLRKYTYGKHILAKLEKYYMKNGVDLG

[5] = biological target: T5, hPUF_MT(1-2-6-5-6-5-6-7-8); test: EMSA
T5 chain: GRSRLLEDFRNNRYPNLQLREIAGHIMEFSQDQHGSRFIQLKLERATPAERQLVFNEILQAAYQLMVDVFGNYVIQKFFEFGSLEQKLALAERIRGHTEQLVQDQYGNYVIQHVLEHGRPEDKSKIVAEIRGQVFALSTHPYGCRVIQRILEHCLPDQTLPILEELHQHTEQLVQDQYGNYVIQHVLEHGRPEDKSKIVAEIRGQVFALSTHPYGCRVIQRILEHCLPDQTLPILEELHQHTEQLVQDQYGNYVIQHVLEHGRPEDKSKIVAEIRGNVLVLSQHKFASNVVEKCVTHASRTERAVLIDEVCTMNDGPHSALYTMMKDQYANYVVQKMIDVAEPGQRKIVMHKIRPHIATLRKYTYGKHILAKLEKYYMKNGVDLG

[6] = biological target: T6, hPUF_MT(R1_Q16E, R3→R5, R4→R6) (R1 repeat Q16E); test: EMSA; G>>U=C
T6 chain: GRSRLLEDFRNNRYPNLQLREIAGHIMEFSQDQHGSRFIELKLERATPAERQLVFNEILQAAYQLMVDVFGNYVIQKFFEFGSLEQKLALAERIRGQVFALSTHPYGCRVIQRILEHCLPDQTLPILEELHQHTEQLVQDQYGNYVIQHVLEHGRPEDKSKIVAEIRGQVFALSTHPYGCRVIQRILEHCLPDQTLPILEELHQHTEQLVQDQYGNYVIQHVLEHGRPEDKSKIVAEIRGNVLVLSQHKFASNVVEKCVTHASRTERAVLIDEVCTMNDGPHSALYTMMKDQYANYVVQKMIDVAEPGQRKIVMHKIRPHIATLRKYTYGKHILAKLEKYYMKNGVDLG

hPUF_MT(R3→R5, R4→R6) [7] = biological target: T2, hPUF_MT(R3→R5, R4→R6); test: EMSA; U=C>A>G at R1 position
[8] = biological target: T7, hPUF_MT(R1_Q16R, R3→R5, R4→R6) (R1 repeat Q16R); test: EMSA; C>U>>G>A; printed as Q16E (C recognition)
T7 chain: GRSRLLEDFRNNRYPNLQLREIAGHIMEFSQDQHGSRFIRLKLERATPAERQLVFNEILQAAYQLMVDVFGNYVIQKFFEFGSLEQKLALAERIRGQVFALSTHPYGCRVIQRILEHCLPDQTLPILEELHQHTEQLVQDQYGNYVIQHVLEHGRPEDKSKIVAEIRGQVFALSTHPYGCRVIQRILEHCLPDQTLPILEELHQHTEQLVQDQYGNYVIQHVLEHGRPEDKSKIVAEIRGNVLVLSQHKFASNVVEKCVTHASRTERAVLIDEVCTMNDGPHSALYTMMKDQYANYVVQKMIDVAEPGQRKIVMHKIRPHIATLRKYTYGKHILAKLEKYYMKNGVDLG

[9] = biological target: T8, hPUF_MT(R8_N12C, R3→R5, R4→R6) (R8 repeat N12C); test: EMSA; no binding
T8 chain: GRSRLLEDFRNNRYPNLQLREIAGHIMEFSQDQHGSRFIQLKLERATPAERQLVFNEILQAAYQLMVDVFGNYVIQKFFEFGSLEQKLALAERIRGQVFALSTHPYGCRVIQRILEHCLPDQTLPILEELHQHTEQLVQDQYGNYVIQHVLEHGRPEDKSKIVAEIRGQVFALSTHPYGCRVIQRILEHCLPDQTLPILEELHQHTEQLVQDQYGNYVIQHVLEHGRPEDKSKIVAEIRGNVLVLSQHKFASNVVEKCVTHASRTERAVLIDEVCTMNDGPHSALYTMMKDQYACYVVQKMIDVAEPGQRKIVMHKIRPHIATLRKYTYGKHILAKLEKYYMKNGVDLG

[10] = biological target: T9, hPUF_MT(R8_N12S, R3→R5, R4→R6) (R8 repeat N12S); test: EMSA; no binding
T9 chain: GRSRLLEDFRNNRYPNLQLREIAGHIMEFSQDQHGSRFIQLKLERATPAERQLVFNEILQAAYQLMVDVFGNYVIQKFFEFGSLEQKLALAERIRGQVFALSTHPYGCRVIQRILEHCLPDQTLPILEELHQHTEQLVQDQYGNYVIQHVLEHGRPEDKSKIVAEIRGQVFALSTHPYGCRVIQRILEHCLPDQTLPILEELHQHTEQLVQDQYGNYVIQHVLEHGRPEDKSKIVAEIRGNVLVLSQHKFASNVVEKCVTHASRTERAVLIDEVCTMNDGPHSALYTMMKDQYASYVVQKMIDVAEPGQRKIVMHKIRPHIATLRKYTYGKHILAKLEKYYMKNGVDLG

hPUF_MT(R8→R5) = biological target: T10, hPUF_MT(R8→R5) (UniProt Q14671 SEQ:1-349); test: EMSA; substantially no binding
T10 chain: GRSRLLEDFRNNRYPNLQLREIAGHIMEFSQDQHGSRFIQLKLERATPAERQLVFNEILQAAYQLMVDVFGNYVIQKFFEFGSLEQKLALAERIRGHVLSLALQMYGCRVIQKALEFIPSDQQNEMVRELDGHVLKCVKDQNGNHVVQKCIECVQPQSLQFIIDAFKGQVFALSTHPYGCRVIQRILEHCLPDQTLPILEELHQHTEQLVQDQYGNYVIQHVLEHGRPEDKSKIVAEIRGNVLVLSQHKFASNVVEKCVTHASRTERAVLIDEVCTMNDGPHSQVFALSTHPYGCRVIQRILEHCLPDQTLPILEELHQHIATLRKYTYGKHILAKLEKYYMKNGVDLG

hPUF_MT(R3→R5, R4→R6) [11] = biological target: T2, hPUF_MT(R3→R5, R4→R6); test: EMSA; binds U exclusively at R8 position
[12] = biological target: T11, hPUF_MT(R7_S12C,E16Q, R3→R5, R4→R6) (R7 repeat S12C,E16Q); test: EMSA; U>C
T11 chain: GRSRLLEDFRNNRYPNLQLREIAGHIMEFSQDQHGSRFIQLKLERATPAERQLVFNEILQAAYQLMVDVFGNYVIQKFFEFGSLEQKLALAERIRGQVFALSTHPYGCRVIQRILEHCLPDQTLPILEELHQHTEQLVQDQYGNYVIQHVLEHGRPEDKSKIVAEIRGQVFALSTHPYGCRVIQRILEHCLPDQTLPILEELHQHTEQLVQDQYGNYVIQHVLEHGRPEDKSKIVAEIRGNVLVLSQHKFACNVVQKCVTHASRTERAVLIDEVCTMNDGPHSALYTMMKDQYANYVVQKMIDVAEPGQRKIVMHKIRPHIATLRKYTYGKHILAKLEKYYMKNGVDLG

[13] = biological target: T12, hPUF_MT(R7_E16R, R3→R5, R4→R6) (R7 repeat E16R); test: EMSA; binds C and U
T12 chain: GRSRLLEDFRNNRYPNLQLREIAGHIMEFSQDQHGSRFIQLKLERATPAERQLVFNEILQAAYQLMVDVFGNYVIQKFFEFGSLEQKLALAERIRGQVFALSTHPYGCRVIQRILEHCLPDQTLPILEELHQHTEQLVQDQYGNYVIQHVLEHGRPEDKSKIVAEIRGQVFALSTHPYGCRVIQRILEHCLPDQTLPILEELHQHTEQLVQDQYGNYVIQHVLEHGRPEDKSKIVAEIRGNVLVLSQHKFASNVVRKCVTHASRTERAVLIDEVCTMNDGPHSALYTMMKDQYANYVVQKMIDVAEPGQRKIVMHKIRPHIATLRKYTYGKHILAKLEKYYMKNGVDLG

[14] = biological target: T13, hPUF_MT(R7_S12N,E16Q, R3→R5, R4→R6) (R7 repeat S12N,E16Q); test: EMSA; binds U exclusively
T13 chain: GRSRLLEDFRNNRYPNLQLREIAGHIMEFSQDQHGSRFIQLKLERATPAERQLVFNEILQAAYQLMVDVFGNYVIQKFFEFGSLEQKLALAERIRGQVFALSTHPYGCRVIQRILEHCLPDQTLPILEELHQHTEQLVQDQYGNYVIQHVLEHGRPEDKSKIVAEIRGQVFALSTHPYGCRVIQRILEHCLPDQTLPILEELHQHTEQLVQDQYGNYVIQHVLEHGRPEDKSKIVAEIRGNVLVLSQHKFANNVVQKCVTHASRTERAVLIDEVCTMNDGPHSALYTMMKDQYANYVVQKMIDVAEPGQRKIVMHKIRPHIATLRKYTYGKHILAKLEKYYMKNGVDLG

hPUF_MT(R3→R5, R4→R6) [15] = biological target: T2, hPUF_MT(R3→R5, R4→R6); test: EMSA; binds G exclusively at R7 position

CCAGAAUUGUAUAUUUUCG (ssRNA) [OTS-2022]: binds [1]; binds (hPUF_MT(R3→R5, R4→R6) [2]).

For CCAGAAUUGUUAUAUAUUCG (ssRNA) [OTS-2082], the binding signal [3] was ~3 fold of WT.

In the case of CCAGAAUUGUAUAAUAUUCG (ssRNA) [OTS-2081], the binding signal [4] is reported as ~3 fold of WT.

CCAGAAUUGUAUAUUAUUCG (ssRNA) [OTS-2080] was tested, and the binding signal [5] was ~3 fold of WT.

CCAGAAUUGUAUAUGUUCG (ssRNA) [OTS-2020]: binds [6].

CCAGAAUUGUAUAUCUUCG (ssRNA) [OTS-2021]: binds (hPUF_MT(R3→R5, R4→R6) [7]); binds [8].

CCAGAAUAGUAUAUAUUCG (ssRNA) [OTS-1825]: no binding [9]; no binding [10]; no binding (hPUF_MT(R8→R5)). CCAGAAUAGUAUAUAUUCG (ssRNA) [OTS-1825]: no binding (hPUF_MT(R3→R5, R4→R6) [11]).

CCAGAAUUUUAUAUAUUCG (ssRNA) [OTS-2032]: binds [12]; binds [13]; binds [14]. CCAGAAUUUUAUAUAUUCG (ssRNA) [OTS-2032]: no binding (hPUF_MT(R3→R5, R4→R6) [15]).
